B1: GNB5 (parent)
chain: DINSVRYYPSGDAFASGSDDATCR

Variants of: B1
Assay: protein stability index of a GFP-peptide fusion (GPS, HEK-293T) (PSI 1-6); higher = more stable
Settings: c terminus: a fixed tail appended
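Also: lentivirally expressed fusions sorted by FACS into six bins by GFP to DsRed ratio, PSI derived from sequencing read proportions per bin multiplied by bin number.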

Protein stability index, by site and new letter:
R6: T 4.82; W 3.33; A 4.44; C 3.9; K 4.34; Y 3.62; E 5.13; N 4.31; S 4.41; D 4.58; F 3.57; G 4.3; H 4.26; V 3.91; L 3.56
S16: E 4.55; I 3.27; N 4.15; A 4.04; M 3.29; D 4.27; R 3.77; V 3.84; K 3.34; H 3.84; C 3.66; Y 3.55; F 3.46; G 4.28
Y8: I 4.5; N 4.34; R 4.65; K 3.79; P 4.63; L 4.39; V 4.55; G 4.43; H 3.78; D 4.87; S 3.94; W 4.24; E 4.8; M 4.55; A 4.49
D1: Q 4.23; L 3.73; Y 2.5; T 3.95; A 4.18; S 4.74; W 2.68; E 4.1; G 4.36; I 3.48; R 4.04; M 3.81
C23: F 3.95; N 3.95; A 4.53; P 4.14; E 4.74; G 4.39; W 3.14; K 4.41; L 3.95; H 4.3; D 4.48; Q 4.13; Y 3.9; V 3.87; I 4; T 4.55
F14: L 4.1; P 4.38; K 4.12; M 3.85; G 5.08; S 4.64; I 4.49; E 5; D 4.16; H 3.99; Q 4.44; A 4.21
N3: G 4.53; H 4.43; F 3.76; A 4.66; S 4.07; T 3.77; Y 3.68; K 4.04; M 3.42; C 3.87; L 3.35; V 3.56; W 3.74; E 4.52
D12: V 2.94; W 2.77; Q 3.46; T 3.31; M 2.7; I 3.08; G 3.54; L 2.87; C 2.66; F 2.69; A 3.4; Y 3.19; H 3.34; S 3.46; E 3.61
G17: Y 3.29; N 3.68; M 3.29; W 3.07; R 3.65; S 3.84; V 3.65; K 3.65; D 4.4; I 3.21; H 3.4; Q 3.75
I2: L 3.82; C 4.32; D 5.39; H 4.51; W 3.99; E 4.87; S 4.6; T 4.49; P 4.92; K 4.68; F 3.98
G11: V 3.46; R 3.67; H 3.62; T 3.74; K 3.68; Y 3.48; A 3.61; P 3.93; Q 3.91; N 3.81; C 3.23; L 3.9; F 3.61; D 4.4; M 4.02
D19: K 3.7; A 2.88; L 3.14; Y 2.62; S 3.4; G 3.79; I 3.03; C 2.85; H 3.12; R 3.06; T 3.25; P 3.4; Q 3.75; F 2.39
S4: Q 3.83; K 4.08; R 3.81; W 3.22; D 4.53; P 4.32; H 4.07; Y 3.75; L 3.42; E 4.29; A 3.95; C 3.44; T 4.23; G 3.6
S18: W 3.02; A 3.35; Y 3.43; H 3.82; I 3.56; P 3.74; V 3.33; T 4.06; L 3.55; K 3.55; M 3.49; R 3.12; D 4.24
D20: V 3.27; H 3.04; E 3.94; P 3.4; T 3.58; A 3.44; Q 3.69; F 2.5; K 3.06; R 3.2; C 3.53; I 3.14; N 3.42; S 3.47; M 3.13
A13: R 3.81; G 4.03; Q 4.4; I 3.28; Y 3.22; M 3.69; L 3.44; K 3.53; P 4.14; S 3.88; C 3.71; F 3.12; N 3.98; E 4.66; D 4.47; T 4
P9: W 3.23; Y 3.35; A 3.59; E 4.16; Q 3.8; R 3.69; D 4.43; I 2.7; V 3.62; L 3.26; N 3.82; F 2.74; H 3.52; K 3.62
S10: W 3.35; L 3.43; N 3.95; R 3.4; M 3.43; I 3.76; G 4.35; A 3.76; K 3.71; F 3.3; Q 4.08; P 4.23
A21: Y 3.19; S 3.91; L 3.82; E 4.38; C 3.82; D 4.34; Q 3.98; V 3.72; G 3.63; W 2.79; T 3.79
T22: A 3.92; I 3.84; G 4.05; H 4.06; K 4.07; F 3.42; S 3.91; L 3.72; V 3.8; C 3.65; E 4.86; D 3.76; M 3.47; Q 4.15
V5: P 4.51; L 3.49; W 3.88; H 3.91; T 4.28; F 3.74; Q 3.85; R 3.73; C 3.81; S 4.26; I 4.19; A 4.38; N 3.46; K 3.91
A15: M 3.57; T 3.63; I 3.43; S 3.66; V 3.91; C 3.66; R 2.99; L 3.73; Q 3.86; G 3.51; D 4.16; F 2.83; P 3.92; K 3.58
R24: H 4.29; A 4.03; I 3.77; L 3.63; V 3.92; K 4.19; F 3.51; P 4.3; W 3.53; G 4.59; E 4.71; M 4.03; Q 4.68; D 4.32; C 4.06; Y 3.99; S 4.12
Y7: F 3.87; D 4.77; N 4.26; V 4.51; G 4.39; W 3.11; I 3.76; R 4.2; E 5.19; H 4.38; M 4.12; S 4.69; P 4.46; T 4.64; C 3.87
